B1: 370_C07 (antibody, V domains shown)
VH: EVQLLESGGGLVQPGGSLRLSCAASGFTFSSYSMNWVRQAPGKGLEWVANINYNGGYKSYADSVKGRFTISRDNSKNTLYLQMNSLRAEDTAVYYCARGATWHDTHLDYWGQGTLVTVSS
VL: DIQMTQSPSSLSASVGDRVTITCRASQSILSYLNWYQQKPGKAPKLLIYAATSRHSGVPSRFSGSGSGTDFTLTISSLQPEDFATYYCQQSYESPLTFGGGTKVEIK
B2: 371_B01 (antibody, V domains shown)
VH: B1 VH with S30D, A49S, G55S, K58T, S59G
VL: B1 VL with L33V, R54L, H55A, E93D, S94L
B3: 374_C12 (antibody, V domains shown)
VH: B1 VH with N50G, T101N, H106A
VL: B1 VL with S31T, L47V, H55A, Y92D, E93N
B4: 371_E12 (antibody, V domains shown)
VH: B1 VH with S30D, A49S, N50G, G55S
VL: B1 VL with R54L, H55A, E93D, S94T
B5: 371_F09 (antibody, V domains shown)
VH: B1 VH with N50G, K58T
VL: B1 VL with S31T, H55A, E93D, S94N
B6: 374_C09 (antibody, V domains shown)
VH: B1 VH with S30D, S33G, A49S, N50S, S59G, T101N
VL: B1 VL with L30V, L47V, H55A, S94L
B7: 375_G05 (antibody, V domains shown)
VH: B1 VH with N50G, K58T, T101N, H106A
VL: B1 VL with L30V, A51V, H55A, E93D
B8: 374_B03 (antibody, V domains shown)
VH: B1 VH with S30D, A49S, N50G, K58T, T101N, H106A
VL: B1 VL with S31T, L47V, H55A, E93D
B9: 374_D05 (antibody, V domains shown)
VH: B1 VH with S30D, A49S, N50G, G55S, K58T, S59G, T101N
VL: B1 VL with S31T, H55A, E93D, S94T
B10: 373_H03 (antibody, V domains shown)
VH: B1 VH with A49S, N50G, G55S, T101N, H106A
VL: B1 VL with A51T, H55A, S94N
B11: 370_E04 (antibody, V domains shown)
VH: B1 VH with S59G
VL: B1 VL with S31T, A51V, R54L, S94T
B12: 373_F07 (antibody, V domains shown)
VH: B1 VH with A49S, N50G, G55S
VL: B1 VL with R54L, H55A, S94T
B13: 373_G08 (antibody, V domains shown)
VH: B1 VH with S30D, A49S, K58T, T101N, H106A
VL: B1 VL with S31T, R54L, H55A, E93D
B14: 370_F12 (antibody, V domains shown)
VH: B1 VH with S31D, K58T, S59G
VL: B1 VL with T52S, R54L, H55Q, E93D
B15: 375_A12 (antibody, V domains shown)
VH: B1 VH with A49S, N50G, G55S, T101N, H106A
VL: B1 VL with L47V, A51V, H55A, S94T
B16: 375_E10 (antibody, V domains shown)
VH: B1 VH with A49S, N50G, K58T, T101N, H106A
VL: B1 VL with L47V, H55A, E93D, S94N
B17: 373_C07 (antibody, V domains shown)
VH: B1 VH with S30D, N50G, G55S, K58T, T101N
VL: B1 VL with S31T, L47V, H55A, S94T
B18: 370_D03 (antibody, V domains shown)
VH: B1 VH with N50S, K58T
VL: B1 VL with L30I, S31T, H55A, E93D, S94L
B19: 374_C01 (antibody, V domains shown)
VH: B1 VH with S30D, S33G, A49S, N50G, G55S, T101N, H106A
VL: B1 VL with S31T, H55A, S94T
B20: 376_F06 (antibody, V domains shown)
VH: B1 VH with S33G, A49S, N50G, K58T, S59G, T101N
VL: B1 VL with S31T, L33V, L47V, H55A, S94T
B21: 376_H01 (antibody, V domains shown)
VH: B1 VH with S31D, N50G, S59G, T101N, H106A
VL: B1 VL with S31T, H55A, E93S, S94T
B22: 376_F01 (antibody, V domains shown)
VH: B1 VH with S31D, N50G, T101N, H106A
VL: not shown
B23: 375_F02 (antibody, V domains shown)
VH: B1 VH with N50S, G55S, K58T, T101N
VL: B1 VL with H55A, E93D
B24: 376_H11 (antibody, V domains shown)
VH: B1 VH with S30D, A49S, K58T, S59G, T101N, H106A
VL: B1 VL with L30S, S31R, A51V, R54L, H55A
B25: 375_H05 (antibody, V domains shown)
VH: B1 VH with A49S, K58T, S59G, T101N, H106A
VL: B1 VL with L33V, H55A, E93D, S94T
B26: 374_D10 (antibody, V domains shown)
VH: B1 VH with S33G, N35H, N50S, K58T, T101N
VL: B1 VL with S31T, L33V, H55A, E93D, S94N
B27: 376_C08 (antibody, V domains shown)
VH: B1 VH with S30D, N50G, G55S, K58T, S59G, T101N
VL: not shown
B28: 375_A07 (antibody, V domains shown)
VH: B1 VH with S30D, A49S, N50S, G55S, K58T, S59G, T101N
VL: B1 VL with S31T, H55A, E93D, S94T
B29: 372_B09 (antibody, V domains shown)
VH: B1 VH with A49S, N50S, G55S, K58T
VL: B1 VL with S31T, H55A, S94T
B30: 374_G08 (antibody, V domains shown)
VH: B1 VH with S30D, A49S, N50G, K58T, T101N, H106A
VL: B1 VL with S31T, L33V, L47V, H55A, E93D

Substitutions are numbered along the chain they refer to.

Sequence of ACVR2A on primary human myotubes (P27037 20-513): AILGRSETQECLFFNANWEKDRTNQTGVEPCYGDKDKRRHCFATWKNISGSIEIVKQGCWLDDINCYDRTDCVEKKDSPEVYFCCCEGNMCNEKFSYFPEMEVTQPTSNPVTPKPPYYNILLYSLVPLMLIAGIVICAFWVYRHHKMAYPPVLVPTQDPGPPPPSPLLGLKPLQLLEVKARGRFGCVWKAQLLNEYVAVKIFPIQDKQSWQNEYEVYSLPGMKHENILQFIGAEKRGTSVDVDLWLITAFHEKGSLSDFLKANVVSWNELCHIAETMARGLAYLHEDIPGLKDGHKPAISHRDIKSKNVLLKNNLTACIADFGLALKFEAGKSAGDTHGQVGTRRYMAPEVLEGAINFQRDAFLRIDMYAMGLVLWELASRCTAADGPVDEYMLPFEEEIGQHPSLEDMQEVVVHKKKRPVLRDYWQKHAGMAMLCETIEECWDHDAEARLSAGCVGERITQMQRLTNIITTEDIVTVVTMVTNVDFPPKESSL

The assay concerns the target ACVR2A on primary human myotubes (human, UniProt P27037 20-513). The experiment in a line: cell-based or functional assay.
With B1, the “Phospho-SMAD3 Human Skeletal Muscle GDF8” value turned out to be 0.0044.

For B2, the “Phospho-SMAD3 Human Skeletal Muscle GDF8” value turned out to be 0.0076.

For B3, the “Phospho-SMAD3 Human Skeletal Muscle GDF8” value worked out at 0.027.

As for B4, the “Phospho-SMAD3 Human Skeletal Muscle GDF8” value amounted to 0.0374.

For B5, the “Phospho-SMAD3 Human Skeletal Muscle GDF8” value came to 0.0311.

B6: the “Phospho-SMAD3 Human Skeletal Muscle GDF8” value came out at 0.189.

Regarding B7, the “Phospho-SMAD3 Human Skeletal Muscle GDF8” value is 0.0052.

Turning to B8, the “Phospho-SMAD3 Human Skeletal Muscle GDF8” value worked out at 0.027.

On to B9, for which the “Phospho-SMAD3 Human Skeletal Muscle GDF8” value was 0.0177.

For the molecule B10, the “Phospho-SMAD3 Human Skeletal Muscle GDF8” value came to 0.0129.

Consider B11, for which the “Phospho-SMAD3 Human Skeletal Muscle GDF8” value is 0.0136.

In the case of B12, the “Phospho-SMAD3 Human Skeletal Muscle GDF8” value turned out to be 0.0069.

With B13, the “Phospho-SMAD3 Human Skeletal Muscle GDF8” value was determined as 0.0057.

Consider B14, for which the “Phospho-SMAD3 Human Skeletal Muscle GDF8” value was determined as 0.0066.

For the molecule B15, the “Phospho-SMAD3 Human Skeletal Muscle GDF8” value is 0.0469.

With B16, the “Phospho-SMAD3 Human Skeletal Muscle GDF8” value was determined as 0.0091.

On to B17, for which the “Phospho-SMAD3 Human Skeletal Muscle GDF8” value amounted to 0.0048.

Turning to B18, the “Phospho-SMAD3 Human Skeletal Muscle GDF8” value is 0.0165.

As for B19, the “Phospho-SMAD3 Human Skeletal Muscle GDF8” value turned out to be 1.11.

Turning to B20, the “Phospho-SMAD3 Human Skeletal Muscle GDF8” value was found to be 0.0544.

B21: the “Phospho-SMAD3 Human Skeletal Muscle GDF8” value came out at 0.0562.

Turning to B22, the “Phospho-SMAD3 Human Skeletal Muscle GDF8” value was determined as 0.595.

B23: the “Phospho-SMAD3 Human Skeletal Muscle GDF8” value stood at 0.0076.

With B24, the “Phospho-SMAD3 Human Skeletal Muscle GDF8” value amounted to 0.0042.

In the case of B25, the “Phospho-SMAD3 Human Skeletal Muscle GDF8” value stood at 0.0346.

For B26, the “Phospho-SMAD3 Human Skeletal Muscle GDF8” value was 0.126.

On to B27, for which the “Phospho-SMAD3 Human Skeletal Muscle GDF8” value was 0.0605.

As to B28, the “Phospho-SMAD3 Human Skeletal Muscle GDF8” value is 0.014.

On to B29, for which the “Phospho-SMAD3 Human Skeletal Muscle GDF8” value worked out at 0.0182.

For the molecule B30, the “Phospho-SMAD3 Human Skeletal Muscle GDF8” value is 0.034.

The values above are taken from patent US20210380703A1 (RIGEL PHARMACEUTICALS, published 2021).
